Assay results taken from publication PMC9064986.

B1: BMPRII extracellular domain (ECD), wild type [human] / Recombinant human BMP10 growth factor (GF)-domain (R&D Systems) [human] (parent)
chain 1: SQNQERLCAFKDPYQQDLGIGESRISHENGTILCSKGSTCYGLWEKSKGDINLVKQGCWSHIGDPQECHYEECVVTTTPPSIQNGTYRFCCCSTDLCNVNFTENFPPPDTTPLSPPHSFNRDET
chain 2: NAKGNYCKRTPLYIDFKEIGWDSWIIAPPGYEAYECRGVCNYPLAEHLTPTKHAIIQALVHLKNSQKASKACCVPTKLEPISILYLDKGVVTYKFKYEGMAVSECGCR

Key:
[1] = variants of: B1; test: SPR (Biacore); details: with Recombinant human BMP10 growth factor (GF)-domain (R&D Systems) [human], BMP10 immobilised on a CM5 Biacore chip
[2] = variants of: B1; test: ELISA (prodomain displacement); details: with BMP10 growth factor (GF)-domain from Pro:BMP10 made in HEK EBNA cells [human]; BMPRII ECD at 125x excess over Pro:BMP10; lower reading = more prodomain displaced; parent: 0.42; read off a plot
[3] = variants of: B1; test: native PAGE prodomain displacement (densitometry); details: with BMP10 growth factor (GF)-domain from Pro:BMP10 made in HEK EBNA cells [human], lower ratio = more prodomain displaced, read off a plot
[4] = BMPRII ECD at 2-fold excess (2x) over Pro:BMP10, parent: 0.59
[5] = BMPRII ECD at 5-fold excess (5x) over Pro:BMP10, parent: 0.46

| Variant | Kd ([1]; parent: 1.19e+03 nM) [nM] | koff ([1]; parent: 0.161) [s⁻¹] | kon ([1]; parent: 1.35e+05) [M⁻¹ s⁻¹] | screen value [2] | screen value [3, 4] | screen value [3, 5] |
| --- | --- | --- | --- | --- | --- | --- |
| chain 1 N100S | 1320 | 0.14 | 106000 | 0.52 | 0.64 | 0.39 |
| chain 1 S81P | – | – | – | 0.3 | 0.7 | 0.66 |
| chain 1 G63E | – | – | – | 0.75 | 0.99 | 0.93 |
| chain 1 G63W | – | – | – | 0.67 | 0.9 | 0.77 |
| chain 1 G63A | – | – | – | 0.57 | 0.78 | 0.6 |
| chain 1 Y41C | – | – | – | 1 | 0.93 | 0.88 |
| chain 1 E72K | – | – | – | 0.42 | 0.49 | 0.19 |
| chain 1 G57E | – | – | – | 1 | 0.93 | 0.88 |
| chain 1 Q66H | – | – | – | 0.47 | 0.77 | 0.55 |
| chain 1 G42D | – | – | – | 0.95 | 0.82 | 0.72 |
